# Results taken from paper PMC11638003, “Plant phytochrome interactions decode light and temperature signals” (The Plant Cell, 2024).
# No end group written: not given here.
# B1: P6A-mScarlet-I (Arabidopsis PIF6 residues 14 to 53, APB.A portion, fused to mScarlet-I) (domain or fragment, Arabidopsis thaliana, UniProt Q8L5W7 14-53, looked up)
# chain: DQEYMELVFENGQILAKGQRSNVSLHNQRTKSIMDLYEAE-{mScarlet‑I}
# notes: mScarlet-I: GenBank APD76536; source: E. coli LOBSTR, purified (IMAC, SENP2 cleavage, second IMAC, optionally anion exchange); not shown: His6-SUMO, N-terminal, cleaved; mScarlet-I, C-terminal, kept
# How the values were obtained:
# Details in all cases: both partners purified
# [1] = target: T1, Arabidopsis thaliana phytochrome B, N-terminal fragment encompassing the N-terminal extension (NTE) and the … (Arabidopsis thaliana, UniProt P14713 1-651, phycocyanobilin chromophore, covalently bound); test: FRET or BRET; equilibrium titration: 20 nM P6A-mScarlet-I with 0 to 2,000 nM AtPhyB PCM at 15 °C after red light (658 nm); 50 mM Tris/HCl pH 8.0, 20 mM NaCl, 100 μg/mL BSA; single-site binding isotherm
# T1 construct: Phytochrome B, Arabidopsis thaliana, GenBank CAA35222.1; N-terminal fragment with the NTE and the PCM (nPAS-GAF-PHY), lacking PAS1, PAS2 and the HKRD; source: E. coli LOBSTR, purified (Co2+-NTA IMAC, anion exchange); plasmid also encodes Synechocystis sp. heme oxygenase 1 and PcyA
# T1 sequence (looked up): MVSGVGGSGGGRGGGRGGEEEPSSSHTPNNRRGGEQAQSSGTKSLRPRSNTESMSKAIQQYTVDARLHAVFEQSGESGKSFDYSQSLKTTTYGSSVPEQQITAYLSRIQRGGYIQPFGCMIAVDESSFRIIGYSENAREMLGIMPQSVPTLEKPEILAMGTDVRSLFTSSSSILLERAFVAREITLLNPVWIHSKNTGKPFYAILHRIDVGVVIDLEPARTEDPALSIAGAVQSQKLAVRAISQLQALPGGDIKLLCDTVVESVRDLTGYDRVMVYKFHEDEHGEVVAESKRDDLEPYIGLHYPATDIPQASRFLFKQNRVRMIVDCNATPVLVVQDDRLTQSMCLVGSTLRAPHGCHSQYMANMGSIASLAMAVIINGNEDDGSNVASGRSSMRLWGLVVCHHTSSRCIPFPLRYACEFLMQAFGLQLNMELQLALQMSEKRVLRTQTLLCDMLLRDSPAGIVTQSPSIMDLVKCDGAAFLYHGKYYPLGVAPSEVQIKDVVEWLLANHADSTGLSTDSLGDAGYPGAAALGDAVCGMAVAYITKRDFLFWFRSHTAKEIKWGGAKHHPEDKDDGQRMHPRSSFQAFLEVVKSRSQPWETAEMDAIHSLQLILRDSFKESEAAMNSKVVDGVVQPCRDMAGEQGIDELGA
# [2] = target: T2, Arabidopsis thaliana phytochrome B residues 1 to 982, AtPhyB (1-982) (Arabidopsis thaliana, UniProt P14713 1-982, phycocyanobilin chromophore, covalently bound); test: FRET or BRET; association kinetics at 15 °C after a 0.5-s pulse of red light (658 nm, 69 mW cm^-2, optical shutter); 20 nM PIF-mScarlet-I variant with 500 to 2,000 nM AtPhyB PCM, or 30 nM P6A-mScarlet-I with 750 to 2,500 nM AtPhyB (1-982); 50 mM Tris/HCl pH 8.0, 20 mM NaCl; pseudo-first-order, linear fit of koFR against the AtPhyB concentration; kaFR corrected for the Pfr fraction; Kd calculated from kdFR and kaFR …
# T2 construct: the oligomeric state is not measured directly here; also called AtPhyB982; source: E. coli LOBSTR, purified (Co2+-NTA IMAC, anion exchange); plasmid also encodes Synechocystis sp. heme oxygenase 1 and PcyA
# T2 sequence (looked up): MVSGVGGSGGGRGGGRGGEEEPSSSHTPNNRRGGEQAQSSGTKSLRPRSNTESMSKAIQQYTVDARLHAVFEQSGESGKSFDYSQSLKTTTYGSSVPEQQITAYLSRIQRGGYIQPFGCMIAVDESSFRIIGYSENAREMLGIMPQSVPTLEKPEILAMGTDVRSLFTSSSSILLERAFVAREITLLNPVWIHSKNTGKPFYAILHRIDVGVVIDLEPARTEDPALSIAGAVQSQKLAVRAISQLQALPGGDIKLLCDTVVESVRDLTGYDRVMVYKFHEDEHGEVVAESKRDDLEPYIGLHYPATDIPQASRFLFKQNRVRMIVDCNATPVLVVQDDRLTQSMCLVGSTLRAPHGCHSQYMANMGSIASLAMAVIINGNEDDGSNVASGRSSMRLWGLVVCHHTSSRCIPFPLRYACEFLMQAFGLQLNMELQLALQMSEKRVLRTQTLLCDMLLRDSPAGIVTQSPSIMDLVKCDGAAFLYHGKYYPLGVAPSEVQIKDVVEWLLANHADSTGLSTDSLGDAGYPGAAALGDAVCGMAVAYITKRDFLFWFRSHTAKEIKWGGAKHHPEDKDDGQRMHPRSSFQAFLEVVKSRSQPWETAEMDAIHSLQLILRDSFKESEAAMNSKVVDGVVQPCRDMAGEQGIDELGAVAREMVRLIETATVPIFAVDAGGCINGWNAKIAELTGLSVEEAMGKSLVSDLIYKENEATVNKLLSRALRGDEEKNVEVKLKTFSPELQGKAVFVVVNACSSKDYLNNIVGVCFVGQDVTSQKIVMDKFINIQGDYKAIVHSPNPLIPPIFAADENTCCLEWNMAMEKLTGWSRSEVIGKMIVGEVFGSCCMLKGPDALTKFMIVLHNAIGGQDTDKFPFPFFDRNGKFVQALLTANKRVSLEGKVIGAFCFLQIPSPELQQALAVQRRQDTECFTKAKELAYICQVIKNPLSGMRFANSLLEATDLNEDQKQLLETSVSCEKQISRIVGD
# [3] = target: T1, Arabidopsis thaliana phytochrome B, …; test: FRET or BRET; as a5 (association and dissociation kinetics after a red-light pulse) at several temperatures up to 30 °C; values told for 30 °C or for 30 °C against 15 °C
# [4] = target: T2, Arabidopsis thaliana phytochrome B …; test: FRET or BRET; association kinetics at 15 °C after a 0.5-s pulse of red light (658 nm, 69 mW cm^-2, optical shutter); 20 nM PIF-mScarlet-I variant with 500 to 2,000 nM AtPhyB PCM, or 30 nM P6A-mScarlet-I with 750 to 2,500 nM AtPhyB (1-982); 50 mM Tris/HCl pH 8.0, 20 mM NaCl; pseudo-first-order, linear fit of koFR against the AtPhyB concentration; kaFR corrected for the Pfr fraction; Kd calculated from kdFR and kaFR …; remark: listed apart in the source
# [5] = target: T1, Arabidopsis thaliana phytochrome B, …; test: as above
binder,measurement,setting,value
B1,Kd,[1],130 ± 80 nM
same,Kd,[2],1400 nM
same,Kd,[3],~900 nM
same,Kd,[4],1050 ± 240 nM
same,koff,[4],0.095 s⁻¹
same,kon,[4],90000 M⁻¹ s⁻¹
same,Kd,[5],183 ± 48 nM
same,koff,[5],0.11 s⁻¹
same,kon,[5],610000 M⁻¹ s⁻¹
